B1: S009-F3.7.3 (antibody, human IgG1, kappa, V domains shown)
VH: EVNFEESGGGLVQPGGSMKLSCVASGFTFSNYWMNWVRQSPEKGLEWVAQIRLKSDNYATHYAESVKGRFTISRDDFKSSVYLQMNNLRAEDTGIYYCTVGTGGYWGQGTTLTVSS
VL: DIVLTQSPASLAMSLGKRATISCRASESVSIVGTNVIHWFQQKPGQPPKLLIYHASNLETGVPARFSGSGSGTDFTLTIDPVEEDDVAIYHCLQSRKIPWTFGGGTKLEIKR
notes: Human-murine chimeric antibody: murine VH/VL on human IgG1 heavy chain constant region and human kappa constant region
B2: S009-F3.16.1 (antibody, human IgG1, kappa, V domains shown)
VH: B1 VH with N3K, T71S, F77S, T99S
VL: B1 VL with M13L, L15P, V32I, N35D, G72R, H91Y
notes: Human-murine chimeric antibody, human IgG1/kappa constant regions
B3: S009-F3-63.5 (antibody, human IgG1, kappa, V domains shown)
VH: QVQLQQSGAELVRPGASVTLSCKASGYTFTDYEMHWVKQTPVHGLEWIGGIDPETGDTAYNQQFKGKAILTADRSSSTAYMELRSLTSEDSAVYYCTNYASSREDYWGQGTTLTVSS
VL: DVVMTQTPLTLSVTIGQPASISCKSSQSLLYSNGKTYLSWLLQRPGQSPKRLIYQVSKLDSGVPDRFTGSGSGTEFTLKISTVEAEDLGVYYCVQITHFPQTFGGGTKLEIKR
notes: as for B2
B4: S009-F3.38.10 (antibody, human IgG1, kappa, V domains shown)
VH: EVQLQQSGPVLVKPGASVKMSCEASGYIFTDYYMNWVKKSHGKSLEWIGVINPKNGVISHNQKFKGKATLTVDKSSNTAYMELSSLTSEDSAVYYCANYGSRFYAMDYWGQGTSVTVSS
VL: DVVMTQTPLSLPVSLGDQASISCRSSQSLIHSDGNTYLQWYLQKSGQSPKLLIYKVSNRFSGVPDRFSGSGSGTDFTLKISRVETEDLGVYFCSQTTHVPFTFGSGTKLEIKR
notes: as for B2
B5: S009-F3.80.22 (antibody, human IgG1, kappa, V domains shown)
VH: QVQLQQSGAELVRPGASVTLSCKASGYTFTDYEIHWVKQTPVHGLEWIGAFDPEIGGSAYNQKFKDRATLTADKSSSTAYMELHSLTAEDSAVYYCTDYYGSSSGYFDVWGTGTTVTVSS
VL: B4 VL with I30E, S32N, D33N, Q39H, Y41F, Q43H, S45P, T85A, T96S
notes: as for B2
B6: S009-F3.74.20 (antibody, human IgG1, kappa, V domains shown)
VH: RVQLQQSGAELVRPGASVTLSCKASGYTFTDSEMHWVKQTPVHGLEWIGAIDPEIDGTAYNQNFRDKAILTADKSSSTAYMELRSLTSEDSAVYYCTTYFGSGYGYFDVWGTGTTVTVSS
VL: DVVMTQTPLSLSVSLGDQASISCRSSQSLVYSNGNTYLHWFLQKPGQSPKLLIYKVSNRFSGVPDRFSGSGSGTDFTLKINRVEAEDLGVYFCSQSTHIPFTFGAGTKLELKR
notes: as for B2

Here are results for 6 molecules from US20250250357A1 (NANJING ZAIMING PHARMACEUTICAL, published 2025).

Substitutions are numbered along the chain they refer to.

T1 sequence (Q13421 other isoform, or with tags, fused parts or gaps): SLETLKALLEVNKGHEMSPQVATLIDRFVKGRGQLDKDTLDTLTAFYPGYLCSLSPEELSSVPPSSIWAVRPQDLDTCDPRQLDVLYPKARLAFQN

The first assay addresses T1, human MSLN-R2-his protein (human, UniProt Q13421 391-486).
T1 construct: also called human MSLN-R2 protein; hMSLN-R2-his; not shown: His tag
Put plainly: ELISA, coated antigen; antibody 1 nM. A general note: In an ELISA, binding on a coated surface is turned into a signal by an enzyme label.
Regarding B1, the OD450 came out at 0.07 OD450.
On the same count and under the same terms, with B2 the figure was 0.06 OD450; with B3, 0.05 OD450.
B4: the OD450 amounted to 0.21 OD450.
The same measure, in the same setting: then B5, with 0.06 OD450.
On the same count and under the same terms, with B6 the figure was 0.09 OD450.

In a further assay the target is T2, human MSLN-R3-his protein (human, UniProt Q13421 487-598).
T2 construct: also called human MSLN-R3 protein; hMSLN-R3-his; not shown: His tag
T2 sequence (Q13421 495-606): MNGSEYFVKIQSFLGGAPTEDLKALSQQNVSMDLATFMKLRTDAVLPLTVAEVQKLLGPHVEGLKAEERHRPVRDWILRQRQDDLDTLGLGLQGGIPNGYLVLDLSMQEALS
Put plainly: ELISA, coated antigen; antibody 1 nM.
B1 returned an OD450 of 1.63 OD450.
Same read-out and setting: with B2 the figure was 1.8 OD450; with B3, 1.78 OD450; with B4, 1.71 OD450.
Same read-out and setting: with B5 the figure was 1.91 OD450; with B6, 1.88 OD450.

In the next assay the target is T3, human MSLN-R3-3 polypeptide (human).
T3 construct: also called human MSLN-R3-3 protein; hMSLN-R3-3
Kind of assay: ELISA, coated antigen; antibody 1 nM.
Description: (§1) The plate was sealed with a plastic film and incubated at 4° C. overnight. The next day, the plate was washed twice with PBST, and a blocking buffer [PBS+2% (w/w) BSA] was added for blocking at room temperature for 2 h. The blocking buffer was discarded, and a chimeric antibody or negative control antibody serially diluted from 100 nM was added at 50 μL/well. After incubation at 37° C. for 2 h, the plate was washed 3 times with PBST. […] After incubation at 37° C. for 2 h, the plate was washed 5 times with PBST. A TMB substrate was added at 50 μL/well for incubation at room temperature for 5-10 min, and then a stop solution (1.0 N HCl) was added at 50 μL/well.
In turn, B1 gave an OD450 of 0.07 OD450.
Same read-out and setting: with B2 the figure was 0.07 OD450; with B3, 1.75 OD450.
The same measure, in the same setting: then B4, with 0.08 OD450.
On the same count and under the same terms, with B5 the figure was 1.84 OD450; with B6, 1.83 OD450.

For a further assay, the target named is T1, human MSLN-R2-his protein. Put plainly: ELISA, coated antigen; antibody 10 nM.
Description: as §1
Turning to B1, the OD450 stood at 0.09 OD450.
In turn, B2 gave an OD450 of 0.08 OD450.
Same read-out and setting: then B3, with 0.07 OD450; and B4, with 0.18 OD450.
The molecule B5 came in with an OD450 of 0.17 OD450.
B6: the OD450 amounted to 0.17 OD450.

A further assay deals with T2, human MSLN-R3-his protein. Put plainly: ELISA, coated antigen; antibody 10 nM.
Description: as §1
With B1, the OD450 is 1.74 OD450.
On the same count and under the same terms, with B2 the figure was 1.91 OD450; with B3, 1.98 OD450; with B4, 1.85 OD450.
Consider B5, for which the OD450 came to 1.88 OD450.
The same measure, in the same setting: then B6, with 1.83 OD450.

A further assay has as its target T3, human MSLN-R3-3 polypeptide. Put plainly: ELISA, coated antigen; antibody 10 nM.
Description: as §1
Take B1: the OD450 was 0.08 OD450.
Regarding B2, the OD450 is 0.08 OD450.
In turn, B3 registered an OD450 of 1.95 OD450.
On the same count and under the same terms, then B4, with 0.1 OD450.
On the same count and under the same terms, with B5 the figure was 1.91 OD450; with B6, 1.9 OD450.

Another assay deals with T1, human MSLN-R2-his protein. Kind of assay: ELISA, coated antigen; antibody 0.1 nM.
Description: as §1
With B1, the OD450 is 0.07 OD450.
The same measure, in the same setting: with B2 the figure was 0.18 OD450.
In turn, B3 displayed an OD450 of 0.05 OD450.
On the same count and under the same terms, then B4, with 0.18 OD450.
Same read-out and setting: then B5, with 0.06 OD450; and B6, with 0.06 OD450.

The next assay deals with T1, human MSLN-R2-his protein. Put plainly: ELISA, coated antigen; antibody 100 nM.
Description: as §1
In the case of B1, the OD450 amounted to 0.12 OD450.
B2 returned an OD450 of 0.12 OD450.
Same read-out and setting: then B3, with 0.09 OD450; and B4, with 0.13 OD450.
Same read-out and setting: with B5 the figure was 0.06 OD450.
As for B6, the OD450 is 0.09 OD450.

In another assay the target is T2, human MSLN-R3-his protein. Put plainly: ELISA, coated antigen; antibody 0.1 nM.
Description: as §1
The molecule B1 returned an OD450 of 1.13 OD450.
The same measure, in the same setting: then B2, with 1.61 OD450; and B3, with 1.43 OD450; and B4, with 1.47 OD450.
Still for that read-out and setting: then B5, with 1.55 OD450; and B6, with 1.07 OD450.

A further assay addresses T2, human MSLN-R3-his protein. Kind of assay: ELISA, coated antigen; antibody 100 nM.
Description: as §1
Molecule B1 had an OD450 of 2.16 OD450.
The same measure, in the same setting: with B2 the figure was 1.92 OD450; with B3, 2.36 OD450; with B4, 2.05 OD450.
Still for that read-out and setting: then B5, with 2.02 OD450; and B6, with 2.06 OD450.

Another assay has as its target T3, human MSLN-R3-3 polypeptide. Put plainly: ELISA, coated antigen; antibody 0.1 nM.
Description: as §1
Molecule B1 displayed an OD450 of 0.07 OD450.
Molecule B2 showed an OD450 of 0.08 OD450.
With B3, the OD450 came out at 1.46 OD450.
Same read-out and setting: then B4, with 0.08 OD450; and B5, with 1.47 OD450; and B6, with 0.96 OD450.

The target is the same in the next assay. Put plainly: ELISA, coated antigen; antibody 100 nM.
Description: as §1
Turning to B1, the OD450 came to 0.11 OD450.
On the same count and under the same terms, with B2 the figure was 0.11 OD450.
The same measure, in the same setting: then B3, with 2.3 OD450.
Regarding B4, the OD450 was 0.32 OD450.
For the molecule B5, the OD450 was 1.93 OD450.
Still for that read-out and setting: then B6, with 2.07 OD450.

In a further assay the target is T1, human MSLN-R2-his protein. Put plainly: ELISA, coated antigen; antibody 0.01 nM.
Description: as §1
Molecule B1 registered an OD450 of 0.06 OD450.
Still for that read-out and setting: with B2 the figure was 0.06 OD450; with B3, 0.05 OD450; with B4, 0.11 OD450.
Same read-out and setting: then B5, with 0.07 OD450; and B6, with 0.06 OD450.

A further assay deals with T2, human MSLN-R3-his protein. Kind of assay: ELISA, coated antigen; antibody 0.01 nM.
Description: as §1
B1 yielded an OD450 of 0.43 OD450.
Still for that read-out and setting: with B2 the figure was 0.65 OD450; with B3, 0.41 OD450.
The same measure, in the same setting: with B4 the figure was 0.41 OD450; with B5, 0.51 OD450; with B6, 0.29 OD450.

The target of a further assay is T3, human MSLN-R3-3 polypeptide. Put plainly: ELISA, coated antigen; antibody 0.01 nM.
Description: as §1
In turn, B1 registered an OD450 of 0.07 OD450.
The same measure, in the same setting: with B2 the figure was 0.07 OD450.
Regarding B3, the OD450 came out at 0.4 OD450.
Turning to B4, the OD450 was 0.08 OD450.
In turn, B5 yielded an OD450 of 0.55 OD450.
Same read-out and setting: with B6 the figure was 0.21 OD450.

The target in a further assay is T1, human MSLN-R2-his protein. Put plainly: ELISA, coated antigen; antibody 0.001 nM.
Description: as §1
The molecule B1 registered an OD450 of 0.07 OD450.
Regarding B2, the OD450 was 0.06 OD450.
Still for that read-out and setting: then B3, with 0.05 OD450.
On the same count and under the same terms, then B4, with 0.06 OD450; and B5, with 0.06 OD450; and B6, with 0.06 OD450.

The target in a further assay is T2, human MSLN-R3-his protein. Kind of assay: ELISA, coated antigen; antibody 0.001 nM.
Description: as §1
With B1, the OD450 is 0.11 OD450.
Still for that read-out and setting: with B2 the figure was 0.15 OD450; with B3, 0.1 OD450; with B4, 0.12 OD450.
Same read-out and setting: then B5, with 0.12 OD450.
B6 came in with an OD450 of 0.1 OD450.

A further assay has as its target T3, human MSLN-R3-3 polypeptide. Put plainly: ELISA, coated antigen; antibody 0.001 nM.
Description: as §1
Molecule B1 showed an OD450 of 0.07 OD450.
The same measure, in the same setting: with B2 the figure was 0.08 OD450; with B3, 0.1 OD450; with B4, 0.08 OD450.
Same read-out and setting: with B5 the figure was 0.15 OD450.
The same measure, in the same setting: then B6, with 0.09 OD450.

The target of a further assay is T1, human MSLN-R2-his protein. Kind of assay: ELISA, coated antigen; antibody 0.0001 nM.
Description: as §1
For the molecule B1, the OD450 was determined as 0.07 OD450.
The same measure, in the same setting: with B2 the figure was 0.06 OD450; with B3, 0.06 OD450.
In turn, B4 had an OD450 of 0.07 OD450.
Same read-out and setting: then B5, with 0.07 OD450.
The same measure, in the same setting: then B6, with 0.06 OD450.

Another assay addresses T2, human MSLN-R3-his protein. Put plainly: ELISA, coated antigen; antibody 0.0001 nM.
Description: as §1
Molecule B1 registered an OD450 of 0.07 OD450.
Same read-out and setting: with B2 the figure was 0.08 OD450; with B3, 0.06 OD450; with B4, 0.08 OD450.
Molecule B5 yielded an OD450 of 0.08 OD450.
Same read-out and setting: with B6 the figure was 0.07 OD450.

The target of a further assay is T3, human MSLN-R3-3 polypeptide. Kind of assay: ELISA, coated antigen; antibody 0.0001 nM.
Description: as §1
For the molecule B1, the OD450 is 0.07 OD450.
On the same count and under the same terms, then B2, with 0.07 OD450; and B3, with 0.07 OD450; and B4, with 0.07 OD450.
Regarding B5, the OD450 amounted to 0.08 OD450.
Still for that read-out and setting: then B6, with 0.07 OD450.

For a further assay, the target named is T1, human MSLN-R2-his protein. Put plainly: ELISA, coated antigen; no antibody (blank, column 'none').
Description: as §1
B1 yielded an OD450 of 0.08 OD450.
Still for that read-out and setting: then B2, with 0.08 OD450.
The same measure, in the same setting: with B3 the figure was 0.07 OD450; with B4, 0.08 OD450.
The same measure, in the same setting: then B5, with 0.07 OD450; and B6, with 0.07 OD450.

A further assay addresses T2, human MSLN-R3-his protein. The description is as above.
Description: as §1
Turning to B1, the OD450 came to 0.08 OD450.
Still for that read-out and setting: with B2 the figure was 0.09 OD450.
On the same count and under the same terms, then B3, with 0.06 OD450; and B4, with 0.09 OD450.
Still for that read-out and setting: then B5, with 0.08 OD450; and B6, with 0.09 OD450.

Another assay has as its target T3, human MSLN-R3-3 polypeptide. The description is as above.
Description: as §1
As for B1, the OD450 worked out at 0.08 OD450.
Still for that read-out and setting: then B2, with 0.08 OD450; and B3, with 0.07 OD450.
On the same count and under the same terms, then B4, with 0.07 OD450.
Same read-out and setting: then B5, with 0.08 OD450.
Molecule B6 yielded an OD450 of 0.07 OD450.
